Source: patent US5686592, “High-affinity oligonucleotide ligands to immunoglobulin E (IgE)” (NeXstar Pharmaceuticals, Inc.)

Legend:
Conditions in all cases: tags: Athens Research Technology; chain copies: 2; label: 5' 32P
human IgE [1] = molecular target: T1, human IgE (Homo sapiens, UniProt P01854-1 P01854-1:1-428); assay: filter; modified PBS, 1 mM Mg2+, 37 C; D11.0 taken as clone D011
human IgE [2] = molecular target: T1, human IgE; assay: filter; modified PBS, 1 mM Mg2+, 37 C; D2.0 taken as clone D002
Experimental: Affinities of representative DNA ligands for human IgE were determined by nitrocellulose filter binding experiments and the K_Ds are listed in Table 7. […] Individual clones tested from this pool have affinities in the same range. The affinities were not expected to vary widely since the enriched DNA pool is very homogenous. Ligand D17.0 was picked for truncation experiments. […] However, the affinity could be restored to the level of the full-length ligand by the addition of a 4 basepair stem resulting in the 37 base truncate D17.4. It is possible that the stem in D17.1 is not stable enough to prevent the formation of an alternative secondary structure and that the additional base pair in D17.4 lock in the conformation necessary for IgE binding.

human IgE [3] = molecular target: T1, human IgE; assay: filter; modified PBS, 1 mM Mg2+, 37 C; D31.0 taken as clone D031

T1 sequence (P01854 other isoform, or with tags, fused parts or gaps): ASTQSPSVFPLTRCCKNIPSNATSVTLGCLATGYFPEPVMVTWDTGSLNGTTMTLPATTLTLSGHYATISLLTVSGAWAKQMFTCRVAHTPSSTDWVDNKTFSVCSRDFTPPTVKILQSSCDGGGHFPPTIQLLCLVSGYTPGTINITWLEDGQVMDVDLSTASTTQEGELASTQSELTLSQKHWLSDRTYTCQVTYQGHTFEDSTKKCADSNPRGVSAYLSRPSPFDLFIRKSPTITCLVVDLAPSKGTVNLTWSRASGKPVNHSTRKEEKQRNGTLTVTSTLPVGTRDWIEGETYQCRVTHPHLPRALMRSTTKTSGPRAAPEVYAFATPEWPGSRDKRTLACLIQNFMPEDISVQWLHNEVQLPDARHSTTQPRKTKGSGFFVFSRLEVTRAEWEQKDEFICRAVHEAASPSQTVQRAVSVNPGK

B1: D11.0 (ssDNA)
DNA: CTACCTACGATCTGACTAGCACCGGAGTACTTCATCCGTCCCTTCTAGTGGGTACCCGTAGCTTACTCTCATGTAGTTCC
Work on B1 yielded a Kd (human IgE [1]) of 8 nM.

B2: D2.0 (ssDNA)
DNA: CTACCTACGATCTGACTAGCGGCCGGAGCTTTATCCGTTACTCTCAGTGGGTGACTGTCGCTTACTCTCATGTAGTTCC
B2 was tested, and the Kd (human IgE [2]) was 6 nM.

B3: D31.0 (ssDNA)
DNA: CTACCTACGATCTGACTAGCACGGGTGAGTTGATCCGTCACTCTTAGTGGTGAACCTTGTGCTTACTCTCATGTAGTTCC
B3 was tested, and the Kd (human IgE [3]) was 22 nM.
